Positions of bridges follow the written chain, without caps; N, C: chain ends. No end group written: not given here. COCH2 = acetyl group that carries the bridge
Target: T1, Recombinant Human FGFR1 alpha (IIIc) Fc Chimera Protein (Homo sapiens, UniProt P11362)
T1 construct: purchased R&D systems 658-FR-050
Assay: ELISA binding affinity of enzymatically synthesized peptide to FGFR
Settings: ELISA luminescence signal at 10 nmol/L peptide, SEQ ID NO: 239 standardized to 1; enzyme synthesis product
Procedure, shortened: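 Cell-free PUREfrex-translated cyclic peptides (Myc/HiBiT-tagged, quantified by HiBiT luminescence) bound 3 h at room temperature to immobilized FGFR1α(IIIc)-Fc, detected with anti-Myc and chemiluminescence. FGFR-specific signal at 10 nmol/L normalized to a reference cyclic peptide and graded A–D.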

T1 sequence (P11362 with tags, fused parts or gaps limits assumed): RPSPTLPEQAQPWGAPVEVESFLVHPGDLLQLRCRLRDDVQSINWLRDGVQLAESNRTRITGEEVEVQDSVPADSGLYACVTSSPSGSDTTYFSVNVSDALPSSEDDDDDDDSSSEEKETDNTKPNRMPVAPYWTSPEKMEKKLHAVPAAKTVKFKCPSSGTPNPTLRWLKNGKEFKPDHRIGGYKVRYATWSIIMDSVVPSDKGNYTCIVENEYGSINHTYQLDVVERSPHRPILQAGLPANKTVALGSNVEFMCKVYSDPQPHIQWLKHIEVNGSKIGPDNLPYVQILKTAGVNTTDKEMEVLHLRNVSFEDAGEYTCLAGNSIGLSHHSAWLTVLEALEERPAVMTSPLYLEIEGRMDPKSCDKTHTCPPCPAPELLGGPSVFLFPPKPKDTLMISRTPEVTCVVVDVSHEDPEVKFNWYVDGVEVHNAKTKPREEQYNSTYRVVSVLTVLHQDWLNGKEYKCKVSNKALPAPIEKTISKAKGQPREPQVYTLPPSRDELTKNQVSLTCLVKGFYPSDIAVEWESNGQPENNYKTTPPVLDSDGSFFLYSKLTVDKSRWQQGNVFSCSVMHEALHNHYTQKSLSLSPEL

Row | Evaluation result of binding affinity to FGFR | Substance
1 | C (0.1 or more and less than 0.5) | 79 (ICVYTHDAHAHSLHAALTK(COCH2)I; thioether 2-19 (inferred)) [compound 79]
2 | C (0.1 or more and less than 0.5) | 123 (ICVYTFDAHWHSLHAALTKI; Description of Artificial Sequence: Cyclic peptide) [compound 123]
3 | A (0.7 or more) | 224 (ICVYTFDAHAHSLHAALHK(COCH2)I; thioether 2-19 (inferred)) [compound 224]
4 | A (0.7 or more) | 48 (QCVYTFDAHAHSLHAALTK(COCH2)I; thioether 2-19 (inferred)) [compound 48]
5 | C (0.1 or more and less than 0.5) | 164 (ICVYTFDAHAHSPHAALTK(COCH2)I; thioether 2-19 (inferred)) [compound 164]
6 | B (0.5 or more and less than 0.7) | 175 (ICVYTFDAHAHSHHAALTK(COCH2)I; thioether 2-19 (inferred)) [compound 175]
7 | C (0.1 or more and less than 0.5) | 120 (ICVYTFDAHVHSLHAALTKI; Description of Artificial Sequence: Cyclic peptide) [compound 120]
8 | C (0.1 or more and less than 0.5) | 148 (ICVYTFDAHAHGLHAALTK(COCH2)I; thioether 2-19 (inferred)) [compound 148]
9 | C (0.1 or more and less than 0.5) | 229 (ICVYTFDAHAHSLHAALTK(COCH2)Y; thioether 2-19 (inferred)) [compound 229]
10 | A (0.7 or more) | 97 (ICVYTFDQHAHSLHAALTK(COCH2)I; thioether 2-19 (inferred)) [compound 97]
11 | C (0.1 or more and less than 0.5) | 75 (ICVYTGDAHAHSLHAALTK(COCH2)I; thioether 2-19 (inferred)) [compound 75]
12 | B (0.5 or more and less than 0.7) | 180 (ICVYTFDAHAHSLIAALTK(COCH2)I; thioether 2-19 (inferred)) [compound 180]
13 | B (0.5 or more and less than 0.7) | 183 (ICVYTFDAHAHSLYAALTK(COCH2)I; thioether 2-19 (inferred)) [compound 183]
14 | B (0.5 or more and less than 0.7) | 135 (ICVYTFDAHAISLHAALTKI; Description of Artificial Sequence: Cyclic peptide) [compound 135]
15 | A (0.7 or more) | 146 (ICVYTFDAHARSLHAALTK(COCH2)I; thioether 2-19 (inferred)) [compound 146]
16 | C (0.1 or more and less than 0.5) | 210 (ICVYTFDAHAHSLHAAITK(COCH2)I; thioether 2-19 (inferred)) [compound 210]
17 | A (0.7 or more) | 116 (ICVYTFDAEAHSLHAALTKI; Description of Artificial Sequence: Cyclic peptide) [compound 116]
18 | A (0.7 or more) | 45 (YCVYTFDAHAHSLHAALTK(COCH2)I; thioether 2-19 (inferred)) [compound 45]
19 | A (0.7 or more) | 40 (GCVYTFDAHAHSLHAALTK(COCH2)I; thioether 2-19 (inferred)) [compound 40]
20 | A (0.7 or more) | 186 (ICVYTFDAHAHSLQAALTK(COCH2)I; thioether 2-19 (inferred)) [compound 186]
21 | C (0.1 or more and less than 0.5) | 107 (ICVYTFDAVAHSLHAALTKI; Description of Artificial Sequence: Cyclic peptide) [compound 107]
22 | A (0.7 or more) | 166 (ICVYTFDAHAHSVHAALTK(COCH2)I; thioether 2-19 (inferred)) [compound 166]
23 | C (0.1 or more and less than 0.5) | 257 (FCAWVVDYQELHQFWSIVQK(COCH2)I; thioether 2-20 (inferred)) [compound 257]
24 | C (0.1 or more and less than 0.5) | 182 (ICVYTFDAHAHSLFAALTK(COCH2)I; thioether 2-19 (inferred)) [compound 182]
25 | A (0.7 or more) | 290 (FCVYTFDANAQSLDDALNK(COCH2)Q; thioether 2-19 (inferred)) [compound 290]
26 | C (0.1 or more and less than 0.5) | 82 (ICVYTFPAHAHSLHAALTK(COCH2)I; thioether 2-19 (inferred)) [compound 82]
27 | A (0.7 or more) | 295 (ICVYTFDAHAHSLDAALNKV; not fully specified (residue 19, bridges)) [compound 295]

More lines, now with the values behind:

Row | Substance | Evaluation result of binding affinity to FGFR
28 | 80 (ICVYTFAAHAHSLHAALTK(COCH2)I; thioether 2-19 (inferred)) [compound 80] | C (0.1 or more and less than 0.5)
29 | 284 (QCRITLLTIYQWKYAWHK(COCH2)E; thioether 2-18 (inferred)) [compound 284] | C (0.1 or more and less than 0.5)
30 | 94 (ICVYTFDYHAHSLHAALTK(COCH2)I; thioether 2-19 (inferred)) [compound 94] | C (0.1 or more and less than 0.5)
31 | 319 (FCVYTFDAHAHSLDAALNK(COCH2)Q; thioether 2-19 (inferred)) [compound 319] | A (0.7 or more)
32 | 83 (ICVYTFVAHAHSLHAALTK(COCH2)I; thioether 2-19 (inferred)) [compound 83] | C (0.1 or more and less than 0.5)
33 | 240 (ACVYLFNWRATSYGKSLIK(COCH2)W; thioether 2-19 (inferred)) [compound 240] | A (0.7 or more)
34 | 252 (RCVYSFDPARYPYHLKK(COCH2)V; thioether 2-17 (inferred)) [compound 252] | A (0.7 or more)
35 | 131 (ICVYTFDAHAASLHAALTKI; Description of Artificial Sequence: Cyclic peptide) [compound 131] | A (0.7 or more)
36 | 293 (ICVYTFDAHAHSLDAALTK(COCH2)V; thioether 2-19 (inferred)) [compound 293] | A (0.7 or more)
37 | 207 (ICVYTFDAHAHSLHAILTK(COCH2)I; thioether 2-19 (inferred)) [compound 207] | C (0.1 or more and less than 0.5)
38 | 179 (ICVYTFDAHAHSLLAALTK(COCH2)I; thioether 2-19 (inferred)) [compound 179] | B (0.5 or more and less than 0.7)
39 | 289 (DCPWSVFSWYIPIYNK(COCH2)I; thioether 2-16 (inferred)) [compound 289] | C (0.1 or more and less than 0.5)
40 | 256 (DCVYQYDRNAHYWDTALVK(COCH2)V; thioether 2-19 (inferred)) [compound 256] | A (0.7 or more)
41 | 215 (ICVYTFDAHAHSLHAALGK(COCH2)I; thioether 2-19 (inferred)) [compound 215] | C (0.1 or more and less than 0.5)
42 | 167 (ICVYTFDAHAHSFHAALTK(COCH2)I; thioether 2-19 (inferred)) [compound 167] | A (0.7 or more)
43 | 133 (ICVYTFDAHAPSLHAALTKI; Description of Artificial Sequence: Cyclic peptide) [compound 133] | A (0.7 or more)
44 | 149 (ICVYTFDAHAHLLHAALTK(COCH2)I; thioether 2-19 (inferred)) [compound 149] | C (0.1 or more and less than 0.5)
45 | 249 (VCVRPIFIFSFRAPFNAVDWK(COCH2)I; thioether 2-21 (inferred)) [compound 249] | C (0.1 or more and less than 0.5)
46 | 309 (FCVYTFDAHAHSLDDALTK(COCH2)I; thioether 2-19 (inferred)) [compound 309] | A (0.7 or more)
47 | 73 (ICVYHFDAHAHSLHAALTK(COCH2)I; thioether 2-19 (inferred)) [compound 73] | C (0.1 or more and less than 0.5)
48 | 184 (ICVYTFDAHAHSLWAALTK(COCH2)I; thioether 2-19 (inferred)) [compound 184] | C (0.1 or more and less than 0.5)
49 | 162 (ICVYTFDAHAHSAHAALTK(COCH2)I; thioether 2-19 (inferred)) [compound 162] | A (0.7 or more)
50 | 223 (ICVYTFDAHAHSLHAALRK(COCH2)I; thioether 2-19 (inferred)) [compound 223] | A (0.7 or more)
51 | 172 (ICVYTFDAHAHSTHAALTK(COCH2)I; thioether 2-19 (inferred)) [compound 172] | B (0.5 or more and less than 0.7)
52 | 72 (ICVYRFDAHAHSLHAALTK(COCH2)I; thioether 2-19 (inferred)) [compound 72] | C (0.1 or more and less than 0.5)
53 | 202 (ICVYTFDAHAHSLHTALTK(COCH2)I; thioether 2-19 (inferred)) [compound 202] | A (0.7 or more)
54 | 241 (HCKLYSYPLWYWPKWVFQTK(COCH2)E; thioether 2-20 (inferred)) [compound 241] | C (0.1 or more and less than 0.5)
55 | 95 (ICVYTFDWHAHSLHAALTK(COCH2)I; thioether 2-19 (inferred)) [compound 95] | C (0.1 or more and less than 0.5)
